The text below walks through data of US20210047432A1 (DIACCURATE, published 2021).

In general, IC50 refers to the midpoint of a concentration-inhibition curve. Usually Kd stands for the concentration at which binding is half-saturated. As usually defined, the koff is a measure of how fast the partners let go of each other. The kon is the rate constant with which the complex forms. A word on the t½: it is the time needed for the level to fall by half in the phase considered. By EC50 is commonly meant the midpoint of the concentration-response curve.

Where two headings read alike, the source gives them in different places.

Test [1] has as its target T1, human FcγRIIIA(V176) (human, UniProt P08637 17-254).
T1 construct: whole, on cells; also called hFcγRIIIA(V176)
The experiment in a line: flow cytometry, monomeric IgG (100 ng/mL) on CHO cells expressing the receptor. How it is done:
(§1) Monomeric IgG binding was tested by incubating the #2B, #2B1 and #2B2 antibodies (100 ng/mL) with 1×10⁵ CHO cells stably expressing human FcγRs for 30 min on ice. The cells were then washed, detached, fixed, and analyzed by flow cytometry (FACSCalibur; BD Biosciences).
(§2) The binding of monomeric #2B, #2B1 and #2B2 to human FcγRs was tested by flow cytometry by incubating the mAbs with CHO cells stably expressing human FcγRI, FcγRIIA (H131), FcγRIIA(R131), FcγRIIB, FcγRIIIA(F176), FcγRIIIA(V176), FcγRIIIB(NA1), FcγRIIIB(NA2), and FcγRIIIB(SH), (REF P. Bruhns). As presented in FIG. 9, #2B is binding to hFcγRI and hFcγRIIIA(V176) only, whereas no monomeric binding of #2B1 and #2B2 to all tested hFcγRs was observed. Antibody-antigen immune complex was tested by first incubating the mAb with the antigen and then, incubating the immune complexes formed with CHO cells stably expressing human FcγRs. The immune complexe of #2B is binding to all tested hFcγRs, except hFcγRIIB (FIG. 10). Weak binding is observed for immune complex of #2B1 to hFcγRIIIA(V176) (data not shown), whereas no immune complex binding of #2B2 to any tested hFcγRs (data not shown).
In general terms: In flow cytometry, cells or beads pass a laser one at a time.

The target in test [2] is T2, human FcγRI (human, UniProt P12314 16-374).
T2 construct: whole, on cells; also called hFcγRI
Described as above. How it is done:
as §1, §2

For test [3], the target named is T3, recombinant human sPLA2-GIB (mature secreted group IB pancreatic phospholipase A2) (human, UniProt P04054 23-148). The test can be described thus: cell-based or functional assay.
For test [4], the target named is T4, recombinant human pro-sPLA2-GIB (human, UniProt P04054 16-148).
T4 construct: also called pro-sPLA2-IB; proPLA2-GIB
The test can be described thus: competitive ELISA: constant antibody premixed with dilutions of soluble antigen, free antibody caught on antigen-coated plate. How it is done: (§3) Binding affinities of the humanized antibodies to pro-sPLA2-GIB and sPLA2-GIB were measured by plate-based competition immunoassay. For the competition ELISA, briefly, constant amounts of antibody at different levels were premixed with serial dilutions of antigen protein, human sPLA2-GIB or pro-sPLA2-GIB, ranging from 0 to 10 μg/ml, and incubated for two hours at room temperature to reach pseudo-binding equilibrium between the antibody and antigen. These solutions were then transferred to 96-well sPLA2-GIB or pro-sPLA2-GIB pre-coated plates to allow the free-antibody in the mixtures to bind to plate-coated sPLA2-GIB or pro-sPLA2-GIB. The plates were typically coated with 30 to 100 ng of human sPLA2-GIB or pro-sPLA2-GIB protein in PBS solution overnight at 4° C. followed by BSA nonspecific blocking. After washing off excess antibody in solution, plate-bound antibodies were detected with an HRP-conjugated goat anti-mouse IgG or IgA polyclonal antibody reagent and developed using colorimetric substrate. The dependency of the signals on the concentrations of antigen in solution was analyzed with a 4-parameter fit analysis using Prism™ software (Graph Pad) and reported as IC50.
(§4) The respective binding affinities of the humanized antibodies to human pro-sPLA2-GIB and human sPLA2-GIB were measured by plate-based competition immunoassay. Briefly, constant amounts of antibody at different levels were premixed with serial dilutions of antigen proteins to reach pseudo-binding equilibrium between the antibody and antigen. These solutions were then transferred to antigen pre-coated plates to allow the free-antibody in the mixtures to bind to plate-coated sPLA2-GIB or pro-sPLA2-GIB. Plate-bound antibodies were detected with an HRP-conjugated polyclonal antibody. Data were fitted with a 4PL logistic non-linear regression model and the relative IC50 values were estimated from the model (Table 4).
In general terms: In an ELISA, binding on a coated surface is turned into a signal by an enzyme label.

Test [5] deals with T3, recombinant human sPLA2-GIB (mature …). Described as above. How it is done: as §3, §4
The target of test [6] is T4, recombinant human pro-sPLA2-GIB. The test can be described thus: SPR (BIAcore 2000), antibody captured, antigen in solution. How it is done:
(§5) The affinity constants (KD) of the pro-sPLA2-GIB and sPLA2-GIB binding to the #2B, #2B1 and #2B2 antibodies were determined by surface kinetics on a real-time biosensor surface plasmon resonance assay (BIAcore™). More specifically, the affinity of the antibodies for human pro-sPLA2-IB and sPLA2-IB was measured using a BIAcore® 2000. The antibody was captured on an anti-mouse IgG surface and exposed to various concentrations of recombinant pro-sPLA2-IB and sPLA2-IB protein. Kinetic analysis using BIAevaluation™ software was performed to obtain the association and dissociation rate constants.
(§6) The affinity constants (KD) of the pro-sPLA2-GIB and sPLA2-GIB binding to #2B1 and #2B2 were determined by surface kinetics on a real-time biosensor surface plasmon resonance assay (BIAcore™). The antibody was captured on an anti-mouse IgG surface and exposed to various concentrations of recombinant pro-sPLA2-IB and sPLA2-IB protein. Kinetic analysis using BIAevaluation™ software was performed to obtain the association and dissociation rate constants (Table 7).
For orientation: SPR reads the build-up and loss of mass on a sensor chip optically.

For test [7], the target named is T3, recombinant human sPLA2-GIB (mature …). The description is as above. How it is done: as §5, §6
Test [8] has the same target. The experiment in a line: indirect ELISA: antigen coated on the plate, #14G9 mAb titrated (x axis mAb, Log M, -9.5 to -6.5), OD450 nm readout. How it is done: (§7) Microplate wells were typically coated with 100 ng of recombinant human sPLA2-X, sPLA2-IB or pro-sPLA2-IB in PBS pH 7.5, overnight at 4° C. Sample wells were washed three times with PBS containing 0.05% Tween 20. After final washing, sample wells were treated with blocking solution containing 1% bovine serum albumin (BSA) in PBS buffer for 60 min at room temperature. Following washing with PBS containing 0.05% Tween 20, increasing amounts (10 ng/mL up to 3 μg/mL) of #14G9 mAb were added to antigen-coated wells. and incubated for 120 min at room temperature. Following washing with PBS containing 0.05% Tween 20, the binding of #14G9 mAb was detected with an HRP-conjugated goat anti-mouse IgG or IgA polyclonal antibody reagent and developed using colorimetric substrate. The dependency of the signals on the concentrations of antigen in solution was analyzed with a 4-parameter fit analysis using Prism™ software (Graph Pad) and reported as EC50.

Test [9] addresses T4, recombinant human pro-sPLA2-GIB. The test can be described thus: competitive ELISA: constant antibody premixed with dilutions of soluble antigen, free antibody caught on antigen-coated plate. How it is done: as §3, with “the” for “the humanized”, “pro-sPLA2-IB” for “pro-sPLA2-GIB”, “sPLA2-IB” for “sPLA2-GIB”, “pro-sPLA2-IB,” for “pro-sPLA2-GIB,”, “µg/ml,” for “μg/ml,”, “pro-sPLA2-IB.” for “pro-sPLA2-GIB.”
The source holds these as a separate data set.

For test [10], the target named is T3, recombinant human sPLA2-GIB (mature …). The description is as above. How it is done:
as §3, with “the” for “the humanized”, “pro-sPLA2-IB” for “pro-sPLA2-GIB”, “sPLA2-IB” for “sPLA2-GIB”, “pro-sPLA2-IB,” for “pro-sPLA2-GIB,”, “µg/ml,” for “μg/ml,”, “pro-sPLA2-IB.” for “pro-sPLA2-GIB.”
The source holds these as a separate data set.

In test [11] the target is T4, recombinant human pro-sPLA2-GIB. The test can be described thus: indirect ELISA: antigen coated on the plate, #14G9 mAb titrated (x axis mAb, Log M, -9.5 to -6.5), OD450 nm readout; the curve reaches only OD450 about 1.6 at the highest concentration, no upper plateau. How it is done:
as §7

For test [12] the target is unchanged. The test can be described thus: SPR (BIAcore 2000), antibody captured on anti-mouse IgG surface, antigen in solution. How it is done: (§8) The affinity constants (KD) of the pro-sPLA2-IB and sPLA2-IB binding to the #14G9 antibody were determined by surface kinetics on a real-time biosensor surface plasmon resonance assay (BIAcore™). More specifically, the affinity of the antibodies for human pro-sPLA2-IB and sPLA2-IB was measured using a BIAcore® 2000. The antibody was captured on an anti-mouse IgG surface and exposed to various concentrations of recombinant pro-sPLA2-IB and sPLA2-IB protein. Kinetic analysis using BIAevaluation™ software was performed to obtain the association and dissociation rate constants.

Test [13] concerns the target T3, recombinant human sPLA2-GIB (mature …). The description is as above. How it is done: as §8
Test [14] concerns the target T5, immune complex of #2B with sPLA2-GIB (human, UniProt P04054 23-148).
T5 construct: also called immune complexe of #2B; antibody-antigen immune complex
The test can be described thus: flow cytometry, antibody-antigen immune complex on CHO cells expressing the receptor. How it is done:
(§9) Antibody-antigen immune complex were generated by co-incubation of 10 µg/ml of humanized antibodies and 5 μg/ml of sPLA2-GIB for 30 min at 37° C. Immune complexes were then incubated with 1×10⁵ CHO cells stably expressing human FcγRs for 30 min on ice. The cells were then washed, detached, fixed, and analyzed by flow cytometry (FACSCalibur; BD Biosciences).
as §2

The target in test [15] is immune complex of #2B2 with sPLA2-GIB (human, UniProt P04054 23-148). Described as above. How it is done: as §9, §2
Sequence of immune complex of #2B2 with sPLA2-GIB (heavy, as listed by the source, chain 1 of 3, one chain of several): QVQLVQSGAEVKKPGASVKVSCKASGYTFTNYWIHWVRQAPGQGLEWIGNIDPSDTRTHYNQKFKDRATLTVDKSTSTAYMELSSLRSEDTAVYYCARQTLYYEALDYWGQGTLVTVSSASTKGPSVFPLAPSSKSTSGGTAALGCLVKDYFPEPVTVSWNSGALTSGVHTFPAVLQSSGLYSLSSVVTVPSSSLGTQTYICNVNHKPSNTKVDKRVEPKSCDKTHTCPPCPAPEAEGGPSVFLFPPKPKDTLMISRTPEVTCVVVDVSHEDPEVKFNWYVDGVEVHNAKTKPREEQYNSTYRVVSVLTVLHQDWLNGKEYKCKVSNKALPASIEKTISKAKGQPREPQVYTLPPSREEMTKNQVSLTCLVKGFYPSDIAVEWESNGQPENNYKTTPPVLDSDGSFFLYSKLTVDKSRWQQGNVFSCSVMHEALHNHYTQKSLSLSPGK
Sequence of immune complex of #2B2 with sPLA2-GIB (P04054 23-148, chain 3 of 3, one chain of several): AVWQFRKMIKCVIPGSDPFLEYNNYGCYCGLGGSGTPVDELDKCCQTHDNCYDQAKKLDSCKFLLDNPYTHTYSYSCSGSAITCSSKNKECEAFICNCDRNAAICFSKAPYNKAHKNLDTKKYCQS

T3 sequence (P04054 23-148): as the sequence (P04054 23-148, chain 3 of 3, one chain of several) above
T4 sequence (P04054 16-148): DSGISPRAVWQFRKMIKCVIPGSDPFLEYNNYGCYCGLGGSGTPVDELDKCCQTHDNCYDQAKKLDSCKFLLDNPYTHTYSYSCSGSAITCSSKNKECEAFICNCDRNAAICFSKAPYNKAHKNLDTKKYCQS
T1 sequence (P08637 17-254 F176V limits assumed): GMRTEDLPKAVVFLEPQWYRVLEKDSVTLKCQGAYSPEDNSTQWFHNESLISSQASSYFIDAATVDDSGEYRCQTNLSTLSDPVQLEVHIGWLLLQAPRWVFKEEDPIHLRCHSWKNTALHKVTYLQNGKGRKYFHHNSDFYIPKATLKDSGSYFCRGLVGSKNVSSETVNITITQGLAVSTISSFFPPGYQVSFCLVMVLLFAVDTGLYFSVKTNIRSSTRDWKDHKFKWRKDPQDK
T2 sequence (P12314 16-374): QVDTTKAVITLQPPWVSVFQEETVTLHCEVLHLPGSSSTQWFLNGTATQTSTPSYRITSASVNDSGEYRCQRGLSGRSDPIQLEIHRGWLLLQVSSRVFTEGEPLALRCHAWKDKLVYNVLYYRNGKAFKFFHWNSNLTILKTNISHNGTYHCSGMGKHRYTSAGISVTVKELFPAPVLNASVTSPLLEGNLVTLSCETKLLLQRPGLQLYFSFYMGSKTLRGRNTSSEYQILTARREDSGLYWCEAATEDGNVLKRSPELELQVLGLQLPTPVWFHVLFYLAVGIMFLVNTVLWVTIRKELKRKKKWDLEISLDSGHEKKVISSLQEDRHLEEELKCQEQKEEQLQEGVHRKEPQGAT

B1: humanized antibody #2B (antibody, human IgG1, kappa)
heavy: not shown
light: EIVMTQSPATLSVSPGERATLSCKASQDVSTAVAWYQQKPGQAPRLLIYWASTRHTGIPARFSGSRSGTEYTLTISSLQSEDFAVYYCQQDYSTPPTFGGGTKVEIKRTVAAPSVFIFPPSDEQLKSGTASVVCLLNNFYPREAKVQWKVDNALQSGNSQESVTEQDSKDSTYSLSSTLTLSKADYEKHKVYACEVTHQGLSSPVTKSFNRGEC
notes: Humanized 14G9, IGHV1-46*01 version B heavy and IGKV3-15*01 version B light; also called Ab #2B; mAb #2B; copies: 2 + 2
Take B1: in test [1], the binding result is listed as “binds”. For the same molecule, the binding result in test [2] is reported as “binds”. The “EC50 for the restoration of the sPLA2-IB effect on IL-7 induced phosphoSTAT5 nuclear translocation in human CD4 T cells (75 nM sPLA2-GIB)” value in test [3] is 3.7 ng/mL. Besides, the IC50 in test [4] is 341 nM. Besides, the IC50 in [5] stood at 2.3 nM. In [6], the Kd came out at 785 nM, the koff worked out at 0.142 s⁻¹, the kon is 176000 M⁻¹ s⁻¹ and the t½ is 0.08 min. In addition, in test [7], the dissociation constant (Kd) was determined as 0.786 nM, the koff turned out to be 0.00225 s⁻¹, the kon stood at 2.89e+06 M⁻¹ s⁻¹ and the t½ was 5.1 min.

B2: #14G9 mAb (mouse anti-sPLA2-GIB monoclonal antibody) (antibody, V domains shown)
VH: QVQLQQPGAELVKPGASVKLSCKASGYTFTNYWIHWVKRRPGQGLEWIGNIDPSDTRTHYNQKFKDKATLAVDKSSSTAYMQLSSLTSEDSAVFYCARQTLYYEALDYWGQGTTLTVSS
VL: DIVMTQSHKLMSTSVGDRVSITCKASQDVSTAVAWYQEKPGQSPKLLIYWASTRHTGVPNRFTGSRSGTDYTLTISSVQAEDLALYYCQQDYSTPPTFGAGTKLELKR
notes: Mouse hybridoma antibody; also called monoclonal antibody 14G9
Take B2: the EC50 came to 6 nM in [8] and 158 nM in test [11]. In addition, the “EC50 for the restoration of the sPLA2-IB effect on IL-7 induced phosphoSTAT5 nuclear translocation in human CD4 T cells (75 nM sPLA2-GIB)” value in test [3] stood at 2.2 ng/mL. Also, the “inhibition of sPLA2-IB enzymatic activity, EC50” value in test [3] turned out to be 2.3 nM. For the same molecule, the results for the IC50 in test [9] and in [10] were 109 nM and 1 nM, respectively. The Kd in test [12] was 174 nM; in test [13], 0.34 nM.

B3: human FcγRIIB (receptor, UniProt P31994 43-310, looked up)
chain: TPAAPPKAVLKLEPQWINVLQEDSVTLTCRGTHSPESDSIQWFHNGNLIPTHTQPSYRFKANNNDSGEYTCQTGQTSLSDPVHLTVLSEWLVLQTPHLEFQEGETIVLRCHSWKDKPLVKVTFFQNGKSKKFSRSDPNFSIPQANHSHSGDYHCTGNIGYTLYSSKPVTITVQAPSSSPMGIIVAVVTGIAVAAIVAAVVALIYCRKKRISALPGYPECREMGETLPEKPANPTNPDEADKVGAENTITYSLLMHPDALEEPDDQNRI
notes: whole, on cells; also called hFcγRIIB
In the case of B3, the binding result in [14] and in [15] was “no binding” each time.
